According to patent US20220275059A1 (HARBOUR ANTIBODIES, published 2022):
Values joined by “and” are separate entries in the source; they are usually repeats but may differ in a detail not shown here. Equal entries are not always repeated.

How the values were obtained:
[1] = target: T1, MERS-CoV S S1 subunit (MERS-S1) (MERS-CoV EMC isolate, UniProt K9N5Q8 19-748); assay: ELISA on coated MERS-S1, OD450 [D]
[2] = target: MERS-S2 ectodomain (MERS-S2^ecto) (MERS-CoV EMC isolate, UniProt K9N5Q8 752-1262)
[3] = target: T2, MERS-S on pseudotyped VSV particles (MERS-S carrying a 16-a.a. cytoplasmic tail truncation) (MERS-CoV, UniProt K9N5Q8 18-1337); assay: cell-based or functional assay
peptide 10 = assay: ELISA on coated overlapping MERS-S2 peptides, A450 [D00032 Fig. 14(B]
peptide 11 = assay: as above
[4] = target: T3, MERS-S1^B domain (receptor binding domain) (MERS-CoV EMC isolate, UniProt K9N5Q8 358-588); assay: ELISA on coated MERS-S1^B, OD450 [D]
[5] = target: T4, NL63 coronavirus spike protein (HCoV-NL63, UniProt Q6Q1S2 16-1291); assay: ELISA on NL63 Secto
T4 sequence: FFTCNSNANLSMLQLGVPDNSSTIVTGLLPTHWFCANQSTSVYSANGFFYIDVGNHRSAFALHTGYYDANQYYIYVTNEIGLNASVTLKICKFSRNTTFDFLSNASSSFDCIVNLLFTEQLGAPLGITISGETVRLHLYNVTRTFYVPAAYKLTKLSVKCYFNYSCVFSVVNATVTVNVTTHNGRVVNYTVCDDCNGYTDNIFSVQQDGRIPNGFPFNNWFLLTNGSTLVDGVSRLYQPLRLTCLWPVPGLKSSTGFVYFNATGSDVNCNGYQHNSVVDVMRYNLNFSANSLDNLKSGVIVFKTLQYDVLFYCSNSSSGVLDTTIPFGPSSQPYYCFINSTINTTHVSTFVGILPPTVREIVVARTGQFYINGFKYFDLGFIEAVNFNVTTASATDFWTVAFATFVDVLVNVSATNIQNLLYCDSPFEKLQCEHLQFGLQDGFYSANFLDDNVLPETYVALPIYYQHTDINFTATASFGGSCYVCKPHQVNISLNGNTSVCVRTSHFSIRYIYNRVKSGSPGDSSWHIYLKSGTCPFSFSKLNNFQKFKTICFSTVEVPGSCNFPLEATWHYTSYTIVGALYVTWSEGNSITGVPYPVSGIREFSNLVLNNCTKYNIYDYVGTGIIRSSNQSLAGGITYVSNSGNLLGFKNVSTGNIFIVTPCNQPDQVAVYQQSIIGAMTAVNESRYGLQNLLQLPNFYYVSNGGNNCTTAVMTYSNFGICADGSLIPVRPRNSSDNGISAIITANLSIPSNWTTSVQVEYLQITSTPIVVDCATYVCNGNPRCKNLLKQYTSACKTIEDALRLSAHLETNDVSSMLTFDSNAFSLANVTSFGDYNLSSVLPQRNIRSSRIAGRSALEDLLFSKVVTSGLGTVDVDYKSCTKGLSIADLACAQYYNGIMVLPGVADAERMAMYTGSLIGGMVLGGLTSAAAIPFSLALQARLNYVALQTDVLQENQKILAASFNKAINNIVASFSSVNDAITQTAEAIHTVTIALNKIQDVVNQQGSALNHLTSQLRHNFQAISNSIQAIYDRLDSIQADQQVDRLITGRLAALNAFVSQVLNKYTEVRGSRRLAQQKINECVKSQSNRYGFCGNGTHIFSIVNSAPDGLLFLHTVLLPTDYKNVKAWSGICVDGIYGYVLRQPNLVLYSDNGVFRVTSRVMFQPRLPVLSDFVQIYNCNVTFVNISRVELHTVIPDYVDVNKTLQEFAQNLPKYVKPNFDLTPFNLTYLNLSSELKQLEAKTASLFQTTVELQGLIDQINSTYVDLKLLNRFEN

[6] = target: T2, MERS-S on pseudotyped VSV particles …; assay: cell-based or functional assay; remark: listed apart in the source
MERS-S1^A domain = target: T5, MERS-S1^A domain (MERS-CoV EMC isolate, UniProt K9N5Q8 19-357); assay: ELISA on coated MERS-S1^A, OD450 [D]
T5 sequence: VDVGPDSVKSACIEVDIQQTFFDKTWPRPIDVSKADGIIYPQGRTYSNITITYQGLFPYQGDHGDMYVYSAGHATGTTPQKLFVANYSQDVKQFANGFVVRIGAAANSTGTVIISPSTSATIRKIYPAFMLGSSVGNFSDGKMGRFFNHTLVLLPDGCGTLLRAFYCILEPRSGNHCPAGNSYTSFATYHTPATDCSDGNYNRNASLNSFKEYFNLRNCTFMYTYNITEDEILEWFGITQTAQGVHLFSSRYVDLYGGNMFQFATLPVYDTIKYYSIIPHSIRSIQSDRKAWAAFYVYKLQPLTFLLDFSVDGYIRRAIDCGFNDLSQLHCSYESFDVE

[7] = target: T1, MERS-CoV S S1 subunit (MERS-S1); assay: ForteBio Octet / BLI (FIG. 2F and 3A)
[8] = target: T3, MERS-S1^B domain (receptor binding …); assay: see FIGS. 5(A) and 29(A)
[9] = target: T3, MERS-S1^B domain (receptor binding …); assay: see FIG. 5A
[10] = target: T1, MERS-CoV S S1 subunit (MERS-S1); assay: see FIG. 29A
[11] = target: T1, MERS-CoV S S1 subunit (MERS-S1); assay: MERS-S1 specific ELISA

B1: 1.6c7 (antibody, V domains shown)
VH: QVQLQQSGPGLVKPSQTLSLTCAISGDSVSSDSAAWNWIRQSPSRGLEWLGRTYFRSKWNNHYAVSVKSRITINPDTSKNQFSLLLNPVTPEDTAVYYCARATLARGALDYWGQGTLVTVSS
VL: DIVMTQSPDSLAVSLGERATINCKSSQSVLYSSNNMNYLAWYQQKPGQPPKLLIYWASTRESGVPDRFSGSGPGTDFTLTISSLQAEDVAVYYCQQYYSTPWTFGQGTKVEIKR
- binding result [1]: no binding (tested: about 5x10^5 ng/ml)
- EC50 (read off the curve) [2]: ~0.03 µg/mL
- IC50, MERS-S pseudovirus (human IgG1) [3]: 2450 pM
- IC50, neutralization of MERS-S pseudovirus infectivity (1.6c7 antibody, H2L2) [3]: ~0.59 µg/mL
- binding result (peptide 10): no binding
- binding result (peptide 11): no binding
- binding result [4]: no binding (tested: about 5x10^5 ng/ml)
- binding result [5]: no binding (tested: 25.00 (no unit printed))
- IC50, neutralisation of MERS-S VSV pseudovirus on Vero cells [6]: 0.367 µg/ml and 2.45 nM
- binding result (MERS-S1^A domain): no binding (tested: about 5x10^5 ng/ml)

B2: 1.8e5 (antibody, V domains shown)
VH: QVQLQESGPGLVKPSGTLSLTCAVSGGSISSNRWWTWVRRSPGKGLEWIGEIYHSGSTNYNPSLKSRVTISVDRSKNQFSLKLSSVTAADTAVYYCASLTLIWFGEKAFDIWGQGTMVTVSS
VL: EIVMTQSPATLSVSPGERATLSCGASPSVSTNLAWYQQRPGQAPRLLIYGISTRAAGIPARFSGTGSGTEFTLTISSLQSEDFALYYCQQYNNWPYTFGQGTKLEIKR
- IC50, MERS-S pseudovirus infection (human IgG1) [3]: 10000 pM
- IC50, neutralization of MERS-S pseudovirus infectivity (H2L2) [3]: ~0.0903 µg/mL
- IC50, neutralization of MERS-S pseudovirus infectivity (human IgG1) [3]: ~2.59 µg/mL
- Kd [7]: ~320 pM
- IC50, neutralisation of MERS-S VSV pseudovirus on Vero cells [6]: 1.5 µg/mL
- binding result (MERS-S1^A domain): no binding (tested: about 5x10^5 ng/ml)

B3: 4.6e10 (antibody, V domains shown)
VH: QVQLVESGGGVVQPGRSLRLSCTASGFTFTYYGLHWVRQAPGKGLEWVAVIWYDGSNQYYADSVQGRFTISRDNSKNTLYLQMNSLRAEDTAVYYCAREGLGAVAGYYFDYWGQGTLVTVSA
VL: DIQMTQSPSSLSASVRDRVTITCRASQIISNYLNWYQQKPGKAPKLLIYAASSLQSGVPSRFSGSGSGTDFTLTISSLQPEDFATYFCQQSYSTPFAFGPGTKVDIKR
- IC50, MERS-S pseudovirus infection (human IgG1) [3]: 320 pM
- IC50, neutralization of MERS-S pseudovirus infectivity (H2L2) [3]: ~0.0313 µg/mL
- IC50, neutralization of MERS-S pseudovirus infectivity (human IgG1) [3]: ~0.07 µg/mL
- Kd [7]: ~360 pM
- IC50, neutralisation of MERS-S VSV pseudovirus on Vero cells [6]: 0.048 µg/mL
- binding result (MERS-S1^A domain): no binding (tested: about 5x10^5 ng/ml)

B4: 7.7a9 (antibody, V domains shown)
VH: EVQLLESGGGSVQPGGSLRLSCEASGFTFNTYPMSWVRQAPGKGLEWVSGISGSGDRTFYEDSVKGRFTISRDNSKNTLYLQMHSLRGEDTAVYYCAKDLGGEGYWGQGTLVTVSS
VL: QAVVTQESALTTSPGETVTLTCRSSTGAVTTSNYANWVQKKPDHLFTGLIGGTNNRAPGVPARFSGSLIGDKAALTITGAQTEDEAIYFCALWYSNHSVFGGGTKLTVLG
- binding result [8]: binds

B5: 7.4f3 (antibody, V domains shown)
VH: EVQLLESGGGLVQPGGSLRLSCEDSGVTFSSNPMSWVRQGPGKGLEWVSGISGSGDRTFYEDSVKGRFTISRDNSKNTLYLQMNSLRAEDTAVYYCAKDLGGEGNWGQGTLVTVSS
VL: QAVVTQESALTTSPGETVTLTCRSSTGAVTISNYANWVQEKPDHSFTGLIGGTNNRAPGVPARFSGSLIGDKAALTITGAQTEDEAIYFCALWYNNQSVFGGGTKLTVLG
- binding result [9]: binds

B6: 7.8h1 (antibody, V domains shown)
VH: QVQLVQSGAEVKKPGASVKVSCKASGYTFTSYDINWVRQATGQGLEWMGWMNPISGNTGYAQKFQGRVTMTRNTSRSTAYMELSSLRSEDTAVYYCARGQWLFDYWGQGTLVTVSS
VL: DIQMTQSPSTLSASIGDRVTITCRASQTISSWLAWYQQKPGKAPKLLIYKASSLESGVPSRFSGSGSGTEFTLTISSLQPDDFATYYCQQYNFYSYTFGQGTKLEIRR
- binding result [10]: binds

B7: 5F1 heavy chain-only antibody (antibody, V domains shown)
VH: EVQLVESGGGLVQPGGSLRLSCAASGFTFSSYWMHWVRQAPGKGLVWVSRINSDGSSTSYADSVKGRFTISRDNAKNTLYLQMNSLRAEDTAVYYCGNPYFDYWGQGTLVTVSS
- binding result [11]: binds
